Measurements from the DeepSol protein solubility set.

Experiment: soluble on expression in E. coli; label from the status in PepcDB or PDB records

| Sequence | soluble on expression in E. coli |
| --- | --- |
| MSLAEGNYISRIRAKIGHDPLIMINTFAVLWNEKHDAIFLEQRADIPDGWGFPGGFVEYGESPMDAIVREVKEETNLDVKVKNMFEMISSVNPHNFWGDAQQNLSLGFEIELLDGKLQVDQSETLAAEFVPINPEPKMFVPAAQANMHRILTWEDRPKPWLIDSNIKSHSEGHHHHHH | soluble |
| MSLAEILMGVGNAGLKESGNPDILVVYLPYPCTASFVFTDNYFKAGSVIYSERIARDKERIRAFVVNSGNANCGTGEEGIKHAEMMAEKVAQILDIPKDEVFVFSTGIIGKYLPIENVLKGIEQACSNLELLDLKRASEVISTTDRFPKYDFAKAGEVETFGFAKGAGMIHPSMATMLAFVFTNANLEYLTLKRIHESVTEKTFNSITVDGCESTNDAFGIISLGEVEADPETVEFELLKVSESLAKQIVADGEGATKIIRVNVRSAITEIKAREIAEAIANSLLVKTAVFGRDPNWGRIAAAAGSTEFPIDPFKLEIYVGGYLLYDGKPHDENLEKAKKHLIEDREVDITVELNEGEYEWVCYSSDIGYDYIKLNAEYTTEGHHHHHH | soluble |
| MSLAELQMLLEEEIPSGKRALIESYQNLTRVADYCENNYIQATDKRKALEETKAYTTQSLASVAYQINALANNVLQLLDIQASQLRRMESSINHISQTVDIHKEKVARREIGILTTNKNTSRTHKIIAPANMERPVRYIRKPIDYTVLDDVGHGVKWLKAKHGNNQPARTGTLSRTNPPTQKEGHHHHHH | not soluble |
| MSLAEQESLALFDDTTEELFMKGTMLSTIFYNAENLFSVVRILVKETNADWDEKDIIVTGFFPALHEQEVYTFYGKMQEHAKFGQQFKADRFRKEMPQSRAGLINYLSGELFKGIGKVTAENIVDTIGDDAITKILSDPSLLNTVPKLPSGAAESLLASLRENQGLEHVMVGLNEYGFGPQLSMKIFQAYKQNAIEVLENNPYKLIEDVKGIGFQRADELGRKLGLGGNHPERLRAGILFMLDSVCMQQGHVYMEQEVLLGEVTYLLEESEGIRIDQSILVAQVEKLAEEQKIITENTRVYMPSLYYSESGFAYHVKRMLKQTEYQEQFPQSEFLLALGELEERIGVHYGDSQRQALEQALMSPMLVLTGGPGTGKTTVIKGIVELYAELNGVSLDPHAYKDGATFPVLLAAPTGRAAKRMSESTGLPAMTIHRLLGMNGQEQMDDDAERLIDGRLLIVDEMSMVDIWLANQLFRALPAHMQVVLVGDQDQLPSVGPGQVLKDILQSEQIPTVALSDIYRQKDGSSIIEMAHYIKEGMLPADFTKNSADRSFFHCTVNQIGDVVEQVVKNAKNKGFRAKDIQVLAPMYRGPAGIDILNKKLQEIFNPNDTGRRKEVQFGDIKYRVHDKVLQLINQPEKNVFNGDIGEIVSIIYAKENTEKQDLIVVQFDQTEVSYYRQEFNQLTHAYCCSIHKAQGSEFPIVIMPIVRSYYRMLRRDLLYTGVTRSKQFLILCGEEEAFRMGIERIDENKRNTTLSERLMSEDVLLEQMTNKRILTAENITEIDPMIGMEGITPEQFMVGEGHHHHHH | soluble |
| MSLAFPKIISVDDHTVEPPDVWRDRLPKKYQDTGPRIVRAPLKEMTFLGGKFAPVMGGPGDDGPLGDWWVYEDLHRPLTRLDTAVGYSRDEIKLEVITYEQMRPGSYDVPRRLADMDVNHVQSALCFPTFPRFCGQTFTEAKDRELGLLGVRAYNDWMVEEWCGPDAHGRLIPLTLVPLWDARLAAAEVRRNAARGVRAVAFSEIPPHLGLPSVHTDDWDPFLAACDETGTVIAMHIGSSSRMPSTSADAPPAVGSTITFANCCFSMVDWLMSGKFERFPNLRVMYAEGQIGWIPYILERADVVWEENRGWGGVADKVHRPPSELFAGHVFGCFFDDAFGLRNLDAIGIGNVLYETDYPHSDSTWPKSREVGEAQMGHLEAEVVERIVRGNAIELLGLTDDGEGHHHHHH | not soluble |
| MSLAGKKIVLGVSGGIAAYKTPELVRRLRDRGADVRVAMTEAAKAFITPLSLQAVSGYPVSDSLLDPAAEAAMGHIELGKWADLVILAPATADLIARVAAGMANDLVSTICLATPAPVAVLPAMNQQMYRAAATQHNLEVLASRGLLIWGPDSGSQACGDIGPGRMLDPLTIVDMAVAHFSPVNDLKHLNIMITAGPTREPLDPVRYISNHSSGKMGFAIAAAAARRGANVTLVSGPVSLPTPPFVKRVDVMTALEMEAAVNASVQQQNIFIGCAAVADYRAATVAPEKIKKQATQGDELTIKMVKNPDIVAGVAALKDHRPYVVGFAAETNNVEEYARQKRIRKNLDLICANDVSQPTQGFNSDNNALHLFWQDGDKVLPLERKELLGQLLLDEIVTRYDEKNRR | soluble |
| MSLAGSWETYTMKVPSEKNLPTTKVVLKMPKDVEFQQYEPIPGWKVSTQKHDDKSVSVTWEATDGGIQEGQFQQFTFVAKNPDKAEEAAWDAYQYYKDGSIVEWTGDEDADTPHSITNITSAKQVTDEHGATKTEDDSENSGSSALDITAMVLSAAAIILSVAALVKKKRAEGHHHHHH | soluble |
| MSLAHAQMEMPPRSLGAVIEQAEAQEAPILLEVYAPWCPYCQRMQENVYADAEVRSYLDRRFTYARLNRDTTGGTHRFNGRTLSSKELGMALGARGVPTTVFMKPDGTPIAKQPGYIKRPVFLQMLRYFGSGAYEEQSFEAFRARASEGHHHHHH | not soluble |
| MSLAHEMIGTQIVTERLVALLESGTEKVLLIDSRPFVEYNTSHILEAININCSKLMKRRLQQDKVLITELIQHSAKHKVDIDCSQKVVVYDQSSQDVASLSSDCFLTVLLGKLEKSFNSVHLLAGGFAEFSRCFPGLCEGKSTLVPTCISQPCLPVANIGPTRILPNLYLGCQRDVLNKELMQQNGIGYVLNASNTCPKPDFIPESHFLRVPVNDSFCEKILPWLDKSVDFIEKAKASNGCVLVHCLAGISRSATIAIAYIMKRMDMSLDEAYRFVKEKRPTISPNFNFLGQLLDYEKKIKNQTEGHHHHHH | soluble |
| MSLAIQNPYTAYQQNSVNTATPGELTLMLYNGCLKFIRLAAQAIENDDMERKNENLIKAQNIIQELNFTLNRNIELSASMGAMYDYMYRRLVQANIKNDTGMLAEVEGYVTDFRDAWKQAIQSERKDRHGSGGIAEGGSHHHHHH | soluble |
| MSLAKGIMLHEVGEQVDQYLLIKSSTKGIASNGKPFLTLMLQDQSGDIEAKLWDAKQSDEVTYAPQTIVKVVGDVHHYRGRTQLKLRNIRPVSEQENVNIDDFLETAPIPKNEMMDTITQYIFEMKNPNIQRITRFLVKKHEAEFMDYPAATKNHHEFVSGLAYHVVSMLNLAKAIADLYPSLDRDLLYAGVILHDLGKVKELSGPVSTSYTVEGNLLGHISIMVTELSKAAEELQIDSEEVLILQHLILSHHGKAEWGSPKPPMVKEAEILHYIDNLDAKMNMMDRALERVKPGEYTERVFALENRSFYKPTFHKEGGSHHHHHH | soluble |
| MSLAKNIVFIGFMGSGKSTLARALAKDLDLVFLDSDFLIEQKFNQKVSEIFEQKRENFFREQEQKMADFFSSCEKACIATGGGFVNVSNLEKAGFCIYLKADFEYLKKRLDKDEISKRPLFYDEIKAKKLYNERLSKYEQKANFILNIENKNIDELLSEIKKVIKEGGSHHHHHH | soluble |
| MSLAKRIVPCLDVHAGRVVKGVNFVNLRDAGDPVEAARAYDEAGADELVFLDISATHEERAILLDVVARVAERVFIPLTVGGGVRSLEDARKLLLSGADKVSVNSAAVRRPELIRELADHFGAQAVVLAIDARWRGDFPEVHVAGGRVPTGLHAVEWAVKGVELGAGEILLTSMDRDGTKEGYDLRLTRMVAEAVGVPVIASGGAGRMEHFLEAFQAGAEAALAASVFHFGEIPIPKLKRYLAEKGVHVRLD | soluble |
| MSLALGSYIERRGELETYFDRTAADTWAKLTSDAPVSGIRATVRAGRDEMRNTLLSWLPADMTGTRLLDAGCGTGALSIEAARRGAKIVAIDLSPTLVAVARERLPDDIDPAAIDFRSGDMLDPELGEFDFVVAMDSLIHYLPHDICRMLATLASRTRQSMAVTFAPKTPLLTLMHFVGGFFPRADRAPAIEPISEKTLRGLVAEDPLLAQWQPGRTHRVSSGFYTSQALEMVREGHHHHHH | soluble |
| MSLALVVQKYGGSSVADAERIRRVAERIVATKKQGNDVVVVVSAMGDTTDDLLDLAQQVCPAPPPRELDMLLTAGERISNALVAMAIESLGAHARSFTGSQAGVITTGTHGNAKIIDVTPGRLQTALEEGRVVLVAGFQGVSQDTKDVTTLGRGGSDTTAVAMAAALGADVCEIYTDVDGIFSADPRIVRNARKLDTVTFEEMLEMAACGAKVLMLRCVEYARRHNIPVHVRSSYSDRPGTVVVGSIKDVPMEDPILTGVAHDRSEAKVTIVGLPDIPGYAAKVFRAVARRRRQHRHGAAERLQGRGRQDRHHLHLLPQTSGPPPWKNWTRSETRSASTQLLYDDHIGKVSLIGAGMRSHPGVTATFCEALAAVGVNIELISTSEDQRSRCCAATPNWTRPWSRCMKRSGSAATRRPRCTRGRDGRWACQEGHHHHHH | not soluble |
| MSLANLFESHSPAGPLANRMRPQSLDEIVGQRHLIGESTLLRRAILADRLGTVIFYGPPGTGKTTLARVISSYTKSAFEQLNAVTAKLDQLREVLKAAESRLQFDQQKTILFLDEIHRFNKMQQDALLPALEAGTITLIGATTENPSFEVNAALLSRATVFRFETPTTEDLRVVLHRTLHDTERGLGKYPITVTEEAVDHYVKLSDGDYRALLNALELAVLTTPEIDGEITIDLSVAEESIQQKALKYDKDGDRHYDVISAFIKSIRGSDPDAALYWLAVMIEAGESPRFIVRRLYVHAAEDIGMSDPQALLIVDACARACEYIGFPEARIPLAETVLYLATAPKSNTVITAIDQALELVRRSDGGPVPPHLRDAHHAGAAALGNGVEYQYPHQFPHAYVKQNYWPENLARTKPVFYKPSPRGFEKQLQARLDFWKKQEGHHHHHH | soluble |
| MSLAPRLKLRDITFFERPVQFARPFRFGAITMNATTQLFVRVEIEVEGRGSAVGASAELLVPKWFDKRPEFSPAQTVDGLRRSLEIARGLYLARTGFLTAFDLHAACIGAQIATCAKKNIPALAAAYGLAEIDKAILDALLRGVETGFFDGMAGNVAGIDARLSPDLKDAEIAAFLSSRKPLPRVAIRHTVGLDDTVEGKGGVADAHENAGASYFKLKLSGDPAADAARLARIGKELDTLGRSYKVTLDANEQYADLAALQALMDRLDHDSDLRPIASRLLYVEQPMPRDITRQSPLGSLAARGFIIDEADDSYDAFPAARALGYHGISSKSCKGLYKSIVSATRAAKWSGGGEKFFVTGEDLTCQAGLAVQQDLAMGAFLGVTHAERNGHHYVDGFGDTPAAEAAAFAAAHPDLYADAGQGIRLSIHDGDLLTGSLHAAGFATSVHPDWSALRPLEQPTSLQEQLAEGHHHHHH | not soluble |
| MSLAPVNIFKAGADEERAETARLTSFIGAIAIGDLVKSTLGPKGMDKILLSSGRDASLMVTNDGATILKNIGVDNPAAKVLVDMSRVQDDEVGDGTTSVTVLAAELLREAESLIAKKIHPQTIIAGWREATKAAREALLSSAVDHGSDEVKFRQDLMNIAGTTLSSKLLTHHKDHFTKLAVEAVLRLKGSGNLEAIHIIKKLGGSLADSYLDEGFLLDKKIGVNQPKRIENAKILIANTGMDTDKIKIFGSRVRVDSTAKVAEIEHAEKEKMKEKVERILKHGINCFINRQLIYNYPEQLFGAAGVMAIEHADFAGVERLALVTGGEIASTFDHPELVKLGSCKLIEEVMIGEDKLIHFSGVALGEACTIVLRGATQQILDEAERSLHDALCVLAQTVKDSRTVYGGGCSEMLMAHAVTQLANRTPGKEAVAMESYAKALRMLPTIIADNAGYDSADLVAQLRAAHSEGNTTAGLDMREGTIGDMAILGITESFQVKRQVLLSAAEAAEVILRVDNIIKAAPRKRVPDHHEGHHHHHH | soluble |
